{"source": "paper PMC12216678", "target": "mouse FXII^HC5 (mouse)", "test": "native MS; buffer-exchanged into 1 M ammonium acetate pH 7.0, electrospray, Bruker maXis qTOF, native-favouring source conditions"}
{"substance": "mouse FXII^HC5 (domain or fragment)", "values": [{"measurement": "stoichiometry N", "result": 2}]}
